This is an account of results in paper PMC5062977 (Nucleic Acids Research, 2016).

B1: His-tag RecA (natural protein, E. coli)
chain: AIDENKQKALAAALGQIEKQFGKGSIMRLGEDRSMDVETISTGSLSLDIALGAGGLPMGRIVEIYGPESSGKTTLTLQVIAAAQREGKTCAFIDAEHALDPIYARKLGVDIDNLLCSQPDTGEQALEICDALARSGAVDVIVVDSVAALTPKAEIEGEIGDSHMGLAARMMSQAMRKLAGNLKQSNTLLIFINQIRMKIGVMFGNPETTTGGNALKFYASVRLDIRRIGAVKEGENVVGSETRVKVVKNKIAAPFKQAEFQILYGEGINFYGELVDLGVKEKLIEKAGAWYSYKGEKIGQGKANATAWLKDNPETAKEIEKKVRELLLSNPNSTPDFSVDDSEGVAETNEDF

The data set “SEC” deals with the molecule itself. Description: SEC.
The data set “His-tag RecA” deals with B1. Description: SEC.
For the next data set, the target named is T1, GST-RecA (E. coli, UniProt P0A7G6 2-353).
T1 sequence: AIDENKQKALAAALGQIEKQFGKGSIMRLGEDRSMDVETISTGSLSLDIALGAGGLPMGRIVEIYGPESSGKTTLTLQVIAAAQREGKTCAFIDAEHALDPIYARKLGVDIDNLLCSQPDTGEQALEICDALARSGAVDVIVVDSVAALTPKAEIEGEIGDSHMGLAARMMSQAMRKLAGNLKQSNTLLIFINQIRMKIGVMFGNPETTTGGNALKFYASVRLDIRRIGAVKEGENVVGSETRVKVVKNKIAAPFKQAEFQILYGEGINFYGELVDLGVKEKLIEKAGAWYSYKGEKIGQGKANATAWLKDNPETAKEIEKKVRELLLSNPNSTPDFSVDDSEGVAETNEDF
Kind of data set: pull-down.

For B1, the binding result in the data set “SEC” is on record as “binds”.

B2: His-tag AlkB (Escherichia coli alkylation repair protein-B) (enzyme, E. coli)
chain: MLDLFADAEPWQEPLAAGAVILRRFAFNAAEQLIRDINDVASQSPFRQMVTPGGYTMSVAMTNCGHLGWTTHRQGYLYSPIDPQTNKPWPAMPQSFHNLCQRAATAAGYPDFQPDACLINRYAPGAKLSLHQDKDEPDLRAPIVSVSLGLPAIFQFGGLKRNDPLKRLLLEHGDVVVWGGESRLFYHGIQPLKAGFHPLTIDCRYNLTFRQAGKKE
For the molecule B2, the binding result with His-tag RecA and in the data set with GST-RecA was “binds” each time.
